Target: SARS-CoV-2 nucleocapsid protein (Np) (SARS-CoV-2, UniProt P0DTC9 1-419)
Assay: SPR

B1: A48t-T20-A61t (DNA-BC) (ssDNA)
DNA: TTCCTTAGGGGCACCGCTACATTTTTTTTTTTTTTTTTTTTTACCTTTACAGATCGGATTCTGTGGGGCG
Kd: 1.04 nM

From paper PMC9851723
